Assay results from FireProtDB (doi:10.1021/bi962155i).
Several values for one entry are separate records, joined by “and”; a condition that tells them apart may be missing. Equal entries are not always repeated.

Settings: Saccharomyces cerevisiae (strain ATCC 204508 / S288c), pH 5, CD, Sodium acetate buffer, reversible: yes

Sequence of Cytochrome c isoform 1 wild type, P00044 (P00044 whole entry, canonical isoform): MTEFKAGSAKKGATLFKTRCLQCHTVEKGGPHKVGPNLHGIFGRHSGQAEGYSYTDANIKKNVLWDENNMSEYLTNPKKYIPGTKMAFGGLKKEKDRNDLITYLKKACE

Substance: Cytochrome c isoform 1 wild type, P00044
- denaturant m value (5 °C, GdnHCl): 5.4 kcal/mol/M
- denaturant midpoint (higher = more stable) (5 °C, GdnHCl): 1.4 M
- unfolding free energy (5 °C, GdnHCl): 7.8 kcal/mol
- unfolding enthalpy (calorimetric) (Thermal): 91.8 kcal/mol and 42.8 kcal/mol
